Substrate in data set [1]: C=CC/C(=N/OS(=O)(=O)O)S[C@@H]1O[C@H](CO)[C@@H](O)[C@H](O)[C@H]1O
As to the kind of experiment: Myrosinase activity assay (glucose release from sinigrin hydrolysis), BMY1. It counts as biochemical, Brevicoryne brassicae. The protocol: Screening for improved β-thioglucosidase. The activity and stability of myrosinase, a β-thioglucosidase that hydrolyzes glucosinolate to sulforaphane, varies at differing pH and temperature; in a preferred embodiment the selected enzyme needs to function under physiological colorectal conditions. The healthy colon pH averages 6.6, while it is 7.0 and 6.7 in patients with adenoma and carcinoma, respectively. In addition, the temperature of the human intestinal tract ranges from 36° C. to 40° C. depending on the individual's metabolic state. In the illustrative example five plant-derived myrosinase orthologues with minimal glycosylation sites and the absence of the co-factor-binding sites using the BLAST search and the Enzyme Function Initiative-Enzyme Similarity Tool (EFI-EST), are compared to the well-characterized myrosinases from Brevicoryne brassicae (BMY1) and Arabidopsis thaliana (TGG1) (FIG. 2a and FIG. 7).
(§1) Gene cloning, protein expression and purification. Myrosinase genes are optimized for E. coli expression and cloned into the pET28b expression vector. The plasmids are transformed into E. coli BL21 (DE3) cultured in lysogeny broth (LB) (BD, Le Pont de Claix, France) at 37° C., 225 rpm to OD600 0.6 followed by 0.5 mM isopropyl β-D-1-thiogalactopyranoside (IPTG) induction at 16° C., 180 rpm for 16 hours. Cells are harvested, resuspended in lysis buffer (50 mM Tris-Cl, 300 mM NaCl, 10% glycerol, 1 mM dithiothreitol [DTT], pH 8.0) and lysed using Emulsiflex C-3 (Avestin). Expressed myrosinases are purified by IMAC Ni-NTA purification followed by Hi-Load Superdex 200 size exclusion column chromatography (GE, Uppsala, Sweden). The purified protein is concentrated and stored at −80° C. Pilot scale protein purification and enzymatic assay is conducted.
(§2) Myrosinase screening assay. The enzymatic reaction is measured for the release of glucose resulting from sinigrin hydrolysis. The reaction is conducted in sodium phosphate-buffered solution supplied in the Amplex® Red Glucose/Glucose Oxidase Assay Kit (Thermo Fisher Scientific, Geel, Belgium). The reaction buffer is prepared at different pH values (6.0, 6.5, 7.4 and 8.0) and at different reaction temperatures (34° C., 37° C., and 40° C.). The reaction is prepared using 0.1 μM purified myrosinase added to 1× Amplex® Red Glucose Assay reaction mixture and was kick-started with the corresponding concentration of sinigrin. The reaction can be measured at 560 nm absorbance and fluorescence (λex=540 nm, λem=590 nm) using a Synergy H1 Multi-Mode microtiter plate reader (BioTek®, Winooski, USA). The reaction initial velocity (VO) is determined and fitted into a Michaelis-Menten curve. Vmax and KM are determined by fitting into the Michaelis-Menten equation (Eq. 1) using GraphPad Prism Software. ^v=Vmax*[Sinigrin]/(KM+[Sinigrin]) (Eq.1)
(§3) Table S1|Myrosinase activity assay screening under various pH and temperature conditions (n=3 independent experiments, each measurement performed in triplicates; mean[…].).

Substrate in data set [2]: C=CC/C(=N/OS(=O)(=O)O)S[C@@H]1O[C@H](CO)[C@@H](O)[C@H](O)[C@H]1O
As to the kind of experiment: Myrosinase activity assay (glucose release from sinigrin hydrolysis), I1. It counts as biochemical, Armoracia rusticana.
Excerpt: In a preferred embodiment, the myrosinases derived from Armoracia rusticana (I1) and Brassica oleacea (A6) have a better stability and catalytic efficiency in various temperatures and pH values when compared with those derived from BMY1 and TGG1 (Table 1). In a preferred illustrative embodiment I1 myrosinase is selected owing to its Km value and improved kcat at the colorectal ambient temperature and pH (FIG. 2c, 2d and Table 1). By comparing the modeled-I1 myrosinase protein structure against that of the BMY1 myrosinase, the critical side chain residues involved in glucose-ring recognition and the glutamic acid that served as a nucleophile during catalysis are conserved. According to the claimed invention the improved catalytic efficiency of the I1 myrosinase is correlated to its pI value (pI=7.90) and the overall positively charged surface (FIG. 8) that contributes to better structural stability.
as §1, §2, §3

[3] abbreviates: other: pH 6.0, 37° C., pH 6.0, 37.0 °C.
[4] abbreviates: other: pH 6.5, 37° C., pH 6.5, 37.0 °C.
The mark [5] stands for this setting: other: pH 7.4, 34° C., pH 7.4, 34.0 °C.
Where [6] appears, read: other: pH 7.4, 37° C., pH 7.4, 37.0 °C.
The mark [7] stands for this setting: other: pH 7.4, 40° C., pH 7.4, 40.0 °C.
The mark [8] stands for this setting: other: pH 8.0, 37° C., pH 8.0, 37.0 °C.

B1: Brevicoryne brassicae myrosinase BMY1 (Brevicoryne brassicae) (protein)
chain: MDYKFPKDFMFGTSTASYQIEGGWNEDGKGENIWDRLVHTSPEVIKDGTNGDIACDSYHKYKEDVAIIKDLNLKFYRFSISWARIAPSGVMNSLEPKGIAYYNNLINELIKNDIIPLVTMYHWDLPQYLQDLGGWVNPIMSDYFKEYARVLFTYFGDRVKWWITFNEPIAVCKGYSIKAYAPNLNLKTTGHYLAGHTQLIAHGKAYRLYEEMFKPTQNGKISISISGVFFMPKNAESDDDIETAERANQFERGWFGHPVYKGDYPPIMKKWVDQKSKEEGLPWSKLPKFTKDEIKLLKGTADFYALNHYSSRLVTFGSDPNPNFNPDASYVTSVDEAWLKPNETPYIIPVPEGLRKLLIWLKNEYGNPQLLITENGYGDDGQLDDFEKISYLKNYLNATLQAMYEDKCNVIGYTVWSLLDNFEWFYGYSIHFGLVKIDFNDPQRTRTKRESYTYFKNVVSTGKP
In the case of B1, the Km in data set [1] (setting [3]) was found to be 153 ± 17 µM; in data set [1] (setting [4]), 399 ± 86 µM; in data set [1] (setting [5]), 76 ± 6 µM; in data set [1] (setting [6]) it was 67 ± 1 µM; in data set [1] (setting [7]) it was 342 ± 67 µM; in data set [1] (setting [8]), 217 ± 87 µM.

B2: Armoracia rusticana myrosinase I1, SEQ ID NO: 6 (Armoracia rusticana) (protein)
chain: QNVCNPACKAKEPFNCDNTLTFNQTGFPKNFTFGAATSAYQIEGAAHRALNGWDYFTHRYPEKVPDRSSGDLACDSYDLYKDDVKLLKRMNVQAYRLSIAWSRVLPKGRLIGGVDENGITYYNNLINELKANGIEPYVTIFHWDVPQTLEDEYGGFLSPRIVEDFTNFAELLFQRFGDRVKFWITLNQPYSLATKGYGDGSYPPGRCTDCEFGGDSGTEPYIVAHHQLLAHAETVSLYRKRYQKFQGGKIGTTLIGRWFQPLNQTSNLDKAAAKRAFDFFVGWFLDPLVYGEYPKIMKEMVGDRMPKFTPQESDLVKGSLDFLGLNYYVTQYATDAPPSIPTQPSAITDPRVTLGYYRNGIPIGVQAASFVYYPTGFRQILNHIKDNYKNPLTYITENGVADFGNLTLANALADIGRIQNHCSHLSCLKCAIADGCNVGGYFAWSFMDNYEFGNGYTLRFGMNWVNFTNPADRKQKDSGKWFSKFLAK
notes: elsewhere used as YebF-I1 fusion
For the protein B2, the Km was determined as 192 ± 40 µM in data set [2] (setting [3]); 183 ± 19 µM in data set [2] (setting [4]); 49 ± 4 µM in data set [2] (setting [5]); 87 ± 7 µM in data set [2] (setting [6]); 87 ± 9 µM in data set [2] (setting [7]); 192 ± 17 µM in data set [2] (setting [8]).

The values are drawn from patent publication US11925667B2, “Engineered therapeutic probiotic system and method” (priority 2018, dated 2024).
